Assay results taken from article PMC9404457 (Nature, 2022).

Target: T1, human FLAG-tagged PORCN (isoform B) (Homo sapiens, PORCN isoform B (Q9H237-2), strain)
T1 chain: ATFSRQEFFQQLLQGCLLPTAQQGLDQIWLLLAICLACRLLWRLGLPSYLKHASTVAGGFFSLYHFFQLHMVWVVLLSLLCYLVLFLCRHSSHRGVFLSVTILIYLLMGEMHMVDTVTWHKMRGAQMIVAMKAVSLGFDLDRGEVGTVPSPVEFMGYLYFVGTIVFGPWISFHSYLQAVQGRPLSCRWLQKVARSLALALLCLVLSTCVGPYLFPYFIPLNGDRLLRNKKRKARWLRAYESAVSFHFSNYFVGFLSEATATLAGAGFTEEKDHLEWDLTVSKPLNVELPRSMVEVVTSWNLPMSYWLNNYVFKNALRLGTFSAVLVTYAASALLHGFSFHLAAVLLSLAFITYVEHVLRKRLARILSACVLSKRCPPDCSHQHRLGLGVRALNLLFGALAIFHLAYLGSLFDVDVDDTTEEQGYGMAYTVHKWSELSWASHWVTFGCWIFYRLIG
Test: SEC

binding result: binds
B1: Fab^2C11 (Fab, V domains shown)
VH: EIQLQQSGAELVKPGASVKMSCKVSGYSFTGYNMNWVKQSHGKSLEWIGNINPYYVSTNYNQKFTGKATFTVDRSSSTAYMQLDSLTSEDSAVYYCARSYGSSHTFAYWGQGTLVTVSS
VL: DIHMTQSPASLSAFVGETVTITCRTSENIFSYLAWYQQKQGKSPQLLVYNAKTLTSGVPSRFSGSGSGTQFSLKINSLQPEDFGSYYCQHHYGSPYTFGGGTKLEIK
